Reference: PMC4413047, “‘Dopamine-first’ mechanism enables the rational engineering of the norcoclaurine synthase aldehyde activity profile” (The Febs Journal, 2015)

Experiments:
Assay in all cases: purified protein
Type in all cases: biochemical, Thalictrum flavum
NCCc1ccc(O)c(O)c1 = conditions: 2.5 mM 4-HPAA (nonsaturating), 50 mM Hepes, 37 °C
CC(C)=CCC[C@H](C)CC=O = conditions: 2.5 mM dopamine (nonsaturating), 50 mM Hepes, 37 °C
CCCCCC=O = conditions: 2.5 mM dopamine (nonsaturating), 50 mM Hepes, 37 °C
O=CCc1ccc(O)cc1 = conditions: 2.5 mM dopamine (nonsaturating), 50 mM Hepes, 37 °C
CC(C)=CCC[C@@H](C)CC=O = conditions: 2.5 mM dopamine (nonsaturating), 50 mM Hepes, 37 °C

Substance | Km (NCCc1ccc(O)c(O)c1) [mM] | Vmax (NCCc1ccc(O)c(O)c1) [µmol/min/mg] | kcat (NCCc1ccc(O)c(O)c1) [s⁻¹] | kcat/Km (NCCc1ccc(O)c(O)c1) [M⁻¹ s⁻¹] | Km (CC(C)=CCC[C@H](C)CC=O) [mM] | Vmax (CC(C)=CCC[C@H](C)CC=O) [µmol/min/mg] | kcat (CC(C)=CCC[C@H](C)CC=O) [s⁻¹] | kcat/Km (CC(C)=CCC[C@H](C)CC=O) [M⁻¹ s⁻¹] | Km (CCCCCC=O) [mM] | Vmax (CCCCCC=O) [µmol/min/mg] | kcat (CCCCCC=O) [s⁻¹] | kcat/Km (CCCCCC=O) [M⁻¹ s⁻¹] | Km (O=CCc1ccc(O)cc1) [mM] | Vmax (O=CCc1ccc(O)cc1) [µmol/min/mg] | kcat (O=CCc1ccc(O)cc1) [s⁻¹] | kcat/Km (O=CCc1ccc(O)cc1) [M⁻¹ s⁻¹] | Km (CC(C)=CCC[C@@H](C)CC=O) [mM] | Vmax (CC(C)=CCC[C@@H](C)CC=O) [µmol/min/mg] | kcat (CC(C)=CCC[C@@H](C)CC=O) [s⁻¹] | kcat/Km (CC(C)=CCC[C@@H](C)CC=O) [M⁻¹ s⁻¹]
TfNCS (Δ29TfNCS) (Thalictrum flavum subsp. glaucum; L76A) | 16.8 ± 1.0 | 38.9 | 13.6 ± 0.5 | 810 ± 60 | 0.59 ± 0.09 | 2.7 | 0.93 ± 0.05 | 1570 ± 250 | 13.4 ± 0.8 | 9 | 3.2 ± 0.1 | 240 ± 20 | 17.4 ± 1.0 | 40.9 | 14.3 ± 0.5 | 820 ± 50 | 0.49 ± 0.11 | 1.58 | 0.55 ± 0.03 | 1130 ± 270
TfNCS (Δ29TfNCS) (Thalictrum flavum subsp. glaucum; Y108F) | 13.3 ± 0.7 | 29.1 | 10.2 ± 0.3 | 760 ± 50 |  |  |  |  | 7.6 ± 0.9 | 7.14 | 2.5 ± 0.1 | 330 ± 40 |  |  |  |  |  |  |  | 
TfNCS (Δ29TfNCS) (Thalictrum flavum subsp. glaucum) | 22.2 ± 1.5 | 69 | 24 ± 1 | 1090 ± 80 | 0.38 ± 0.10 | 1.32 | 0.46 ± 0.02 | 1200 ± 310 | 13.4 ± 1.8 | 12.3 | 4.3 ± 0.3 | 320 ± 50 | 18.1 ± 1.4 | 53.6 | 18.7 ± 0.9 | 1030 ± 90 | 0.53 ± 0.14 | 1.07 | 0.37 ± 0.03 | 710 ± 200
